T1: DSG1 stably expressed on HEK-BLUE IL-10 cells (called human DSG1; DSG1 gene NP_034209.2) (human, UniProt Q02413 50-1049)
T1 sequence (looked up): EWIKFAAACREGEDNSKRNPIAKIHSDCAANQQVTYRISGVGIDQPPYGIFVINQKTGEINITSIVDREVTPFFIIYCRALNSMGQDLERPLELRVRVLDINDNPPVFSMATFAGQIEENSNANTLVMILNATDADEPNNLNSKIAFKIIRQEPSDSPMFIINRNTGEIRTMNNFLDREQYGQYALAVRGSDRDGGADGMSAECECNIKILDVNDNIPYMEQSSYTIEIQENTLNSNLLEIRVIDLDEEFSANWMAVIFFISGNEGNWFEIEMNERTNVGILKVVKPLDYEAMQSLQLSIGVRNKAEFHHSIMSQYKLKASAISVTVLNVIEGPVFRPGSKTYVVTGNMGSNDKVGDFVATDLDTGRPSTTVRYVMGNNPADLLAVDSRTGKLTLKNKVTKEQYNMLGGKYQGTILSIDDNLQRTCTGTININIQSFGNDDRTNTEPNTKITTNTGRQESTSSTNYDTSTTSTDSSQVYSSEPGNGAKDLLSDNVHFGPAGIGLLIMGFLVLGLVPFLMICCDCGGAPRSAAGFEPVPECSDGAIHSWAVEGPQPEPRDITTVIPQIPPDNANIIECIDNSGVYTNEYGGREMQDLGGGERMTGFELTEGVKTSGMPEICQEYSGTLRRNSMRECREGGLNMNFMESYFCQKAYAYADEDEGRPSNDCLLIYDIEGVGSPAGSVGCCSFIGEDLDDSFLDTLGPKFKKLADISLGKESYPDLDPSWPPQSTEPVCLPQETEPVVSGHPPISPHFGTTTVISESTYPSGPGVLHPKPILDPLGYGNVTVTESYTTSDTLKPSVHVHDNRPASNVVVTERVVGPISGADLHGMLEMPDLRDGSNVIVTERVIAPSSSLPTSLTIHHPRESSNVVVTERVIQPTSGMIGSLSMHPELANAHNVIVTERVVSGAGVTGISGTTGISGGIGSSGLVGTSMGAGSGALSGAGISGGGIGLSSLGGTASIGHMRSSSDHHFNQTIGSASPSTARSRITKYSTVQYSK


Tests used:
[1] = molecular target: IL-10 receptor of HEK-BLUE IL-10 cells (the cells express all the components of the IL-10 signaling pathway); assay: cell-based or functional assay
[2] = molecular target: T1, DSG1 stably expressed on HEK-BLUE IL-10 …; assay: cell-based or functional assay
[3] = molecular target: T2, recombinant His-tagged murine RAGE protein (ab276858 from Abcam) (murine, UniProt Q62151 23-342, limits assumed); assay: BLI, ANDbody on anti-human IgG Fc biosensors, murine RAGE at 150 nM then murine Notch2 NRR at 150 nM
T2 construct: also called murine RAGE antigen; not shown: His tag
Description: To test simultaneous dual antigen binding of the Notch2/RAGE ANDbodies by BLI, PRO051, PRO052 and PRO053, along with monovalent parental antibody controls were immobilized on anti-human IgG Fc biosensors and dipped into the recombinant His-tagged murine RAGE protein at 150 nM, followed by a second association step into wells containing recombinant murine Notch2 NRR at 150 nM to measure dual antigen binding. The dissociation rate was then measured by dipping the biosensors into buffer.

T2 sequence (Q62151 23-342 limits assumed): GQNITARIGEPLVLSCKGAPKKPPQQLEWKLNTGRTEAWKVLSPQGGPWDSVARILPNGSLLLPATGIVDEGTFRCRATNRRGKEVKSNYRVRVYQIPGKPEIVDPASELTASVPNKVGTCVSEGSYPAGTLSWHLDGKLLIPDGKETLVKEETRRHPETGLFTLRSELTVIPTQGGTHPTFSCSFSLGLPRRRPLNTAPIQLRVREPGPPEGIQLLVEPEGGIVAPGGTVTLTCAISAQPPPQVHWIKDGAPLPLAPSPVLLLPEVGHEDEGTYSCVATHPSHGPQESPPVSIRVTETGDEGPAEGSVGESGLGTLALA

Binder | EC50 (pM), HEK-BLUE IL-10 signaling assay (SEAP) [1] | binding result [3] | also measured
PRO026 (IL-10/DSG1 ANDbody: monomeric IL-10 replacing one Fab of the anti-DSG1 mAb) (other) heavy: EVQLVESGGGLVQPGRSLRLSCAASGFTFDDYAMHWVRQAPGKGLEWVSGISWNSGSIDYADSVKGRFTISRDNAKNSLYLQMNSLRVEDTALYYCAKDGSRVFGVGGGFDFWGQGTMVTVSSASTKGPSVFPLAPSSKSTSGGTAALGCLVKDYFPEPVTVSWNSGALTSGVHTFPAVLQSSGLYSLSSVVTVPSSSLGTQTYICNVNHKPSNTKVDKKVEPKSCDKTHTCPPCPAPEAAGGPSVFLFPPKPKDTLMISRTPEVTCVVVDVSHEDPEVKFNWYVDGVEVHNAKTKPREEQYNSTYRVVSVLTVLHQDWLNGKEYKCKVSNKALGAPIEKTISKAKGQPREPQVYTLPPSRDELTKNQVKLTCLVKGFYPSDIAVEWESNGQPENNYKTTPPVLDSDGSFFLYSSLTVDKSRWQQGNVFSCSVMHEALHNHYTQKSLSLSPG light: not shown SPGQGTQSENSCTHFPGNLPNMLRDLRDAFSRVKTFFQMKDQLDNLLLKESLLEDFKGYLGCQALSEMIQFYLEEVMPQAENQDPDIKAHVNSLGENLKTLRLRLRRCHRFLPCENGGGSGGKSKAVEQVKNAFNKLQEKGIYKAMSEFDIFINYIEAYMTMKIRNGGGGSGGGGSDKTHTCPPCPAPEAAGGPSVFLFPPKPKDTLMISRTPEVTCVVVDVSHEDPEVKFNWYVDGVEVHNAKTKPREEQYNSTYRVVSVLTVLHQDWLNGKEYKCKVSNKALGAPIEKTISKAKGQPREPQVYTLPPSRDELTKNQVSLTCLVSGFYPSDIAVEWESNGQPENNYKTTPPVLDSDGSFKLYSKLTVDKSRWQQGNVFSCSVMHEALHNHYTQKSLSLSPG | 750 pM | – | –
PRO058 (IL-10/DSG1 ANDbody in which monomeric IL-10 replaces one Fab of the anti-DSG1 mAb; functionally equivalent to PRO026, with a substitution in the Fc … (other) heavy: EVQLVESGGGLVQPGRSLRLSCAASGFTFDDYAMHWVRQAPGKGLEWVSGISWNSGSIDYADSVKGRFTISRDNAKNSLYLQMNSLRVEDTALYYCAKDGSRVFGVGGGFDFWGQGTMVTVSSASTKGPSVFPLAPSSKSTSGGTAALGCLVKDYFPEPVTVSWNSGALTSGVHTFPAVLQSSGLYSLSSVVTVPSSSLGTQTYICNVNHKPSNTKVDKKVEPKSCDKTHTCPPCPAPEAAGGPSVFLFPPKPKDTLMISRTPEVTCVVVDVSHEDPEVKFNWYVDGVEVHNAKTKPREEQYNSTYRVVSVLTVLHQDWLNGKEYKCKVSNKALGAPIEKTISKAKGQPREPQVYTLPPSRDELTKNQVKLTCLVKGFYPSDIAVEWESNGQPENNYKTTPPVLDSDGSFFLYSSLTVDKSRWQQGNVFSCSVMHEALHNHYTQKSLSLSPG light: not shown SPGQGTQSENSCTHFPGNLPNMLRDLRDAFSRVKTFFQMKDQLDNLLLKESLLEDFKGYLGCQALSEMIQFYLEEVMPQAENQDPDIKAHVNSLGENLKTLRLRLRRCHRFLPCENGGGSGGKSKAVEQVKNAFNKLQEKGIYKAMSEFDIFINYIEAYMTMKIRNGGGGSGGGGSDKTHTCPPCPAPEAAGGPSVFLFPPKPKDTLMISRTPEVTCVVVDVSHEDPEVKFNWYVDGVEVHNAKTKPREEQYNSTYRVVSVLTVLHQDWLNGKEYKCKVSNKALGAPIEKTISKAKGQPREPQVYTLPPSRDELTKNQVSLTCLVSGFYPSDIAVEWESNGQPENNYKTTPPVLDSDGSFKLYSKLTVDKSRWQQGNVFSCSVMHEALHNRFTQKSLSLSPG | – | – | increase in potency of IL-10 signaling (SEAP) on HEK-BLUE IL-10/DSG1 cells against parental HEK-BLUE IL-10 cells [2]: ~15 fold
PRO027 (IL-10/DSG1 ANDbody: IL-10 dimer replacing one Fab of the anti-DSG1 mAb) (other) heavy: EVQLVESGGGLVQPGRSLRLSCAASGFTFDDYAMHWVRQAPGKGLEWVSGISWNSGSIDYADSVKGRFTISRDNAKNSLYLQMNSLRVEDTALYYCAKDGSRVFGVGGGFDFWGQGTMVTVSSASTKGPSVFPLAPSSKSTSGGTAALGCLVKDYFPEPVTVSWNSGALTSGVHTFPAVLQSSGLYSLSSVVTVPSSSLGTQTYICNVNHKPSNTKVDKKVEPKSCDKTHTCPPCPAPEAAGGPSVFLFPPKPKDTLMISRTPEVTCVVVDVSHEDPEVKFNWYVDGVEVHNAKTKPREEQYNSTYRVVSVLTVLHQDWLNGKEYKCKVSNKALGAPIEKTISKAKGQPREPQVYTLPPSRDELTKNQVKLTCLVKGFYPSDIAVEWESNGQPENNYKTTPPVLDSDGSFFLYSSLTVDKSRWQQGNVFSCSVMHEALHNHYTQKSLSLSPG light: not shown SPGQGTQSENSCTHFPGNLPNMLRDLRDAFSRVKTFFQMKDQLDNLLLKESLLEDFKGYLGCQALSEMIQFYLEEVMPQAENQDPDIKAHVNSLGENLKTLRLRLRRCHRFLPCENKSKAVEQVKNAFNKLQEKGIYKAMSEFDIFINYIEAYMTMKIRNGGGSGGGSPGQGTQSENSCTHFPGNLPNMLRDLRDAFSRVKTFFQMKDQLDNLLLKESLLEDFKGYLGCQALSEMIQFYLEEVMPQAENQDPDIKAHVNSLGENLKTLRLRLRRCHRFLPCENKSKAVEQVKNAFNKLQEKGIYKAMSEFDIFINYIEAYMTMKIRNGGGGSGGGGSDKTHTCPPCPAPEAAGGPSVFLFPPKPKDTLMISRTPEVTCVVVDVSHEDPEVKFNWYVDGVEVHNAKTKPREEQYNSTYRVVSVLTVLHQDWLNGKEYKCKVSNKALGAPIEKTISKAKGQPREPQVYTLPPSRDELTKNQVSLTCLVSGFYPSDIAVEWESNGQPENNYKTTPPVLDSDGSFKLYSKLTVDKSRWQQGNVFSCSVMHEALHNHYTQKSLSLSPG | 19 pM | – | –
PRO052 (Notch2/RAGE ANDbody made by controlled Fab arm exchange of PRO035 K409R and PRO002 F405L) (bispecific antibody, copies: 1 + 1 + 1 + 1) heavy 1: not shown light 1: DIQMTQSPSSLSASVGDRVTITCRASQSNRRFLAWYQQKPGKAPKLLIYGASSRASGVPSRFSGSGSGTDFTLTISSLQPEDFATYYCQQYYISPLTFGQGTKVEIKRTVAAPSVFIFPPSDEQLKSGTASVVCLLNNFYPREAKVQWKVDNALQSGNSQESVTEQDSKDSTYSLSSTLTLSKADYEKHKVYACEVTHQGLSSPVTKSFNRGEC heavy 2: not shown light 2: DIQMTQSPSSLSASVGDRVTITCRASQDVGIYVNWFQQKPGKAPRRLIYRATNLADGVPSRFSGSRSGTDFTLTISSLQPEDFATYYCLEFDEHPLTFGGGTKVEIKRTVAAPSVFIFPPSDEQLKSGTASVVCLLNNFYPREAKVQWKVDNALQSGNSQESVTEQDSKDSTYSLSSTLTLSKADYEKHKVYACEVTHQGLSSPVTKSFNRGEC | – | binds | –
PRO053 (Notch2/RAGE ANDbody made by controlled Fab arm exchange of PRO036 K409R and PRO002 F405L) (bispecific antibody, copies: 1 + 1 + 1 + 1) heavy 1: not shown light 1: DIQMTQSPSSLSASVGDRVTITCRASQSVRSFLAWYQQKPGKAPKLLIYRASIRASGVPSRFSGSGSGTDFTLTISSLQPEDFATYYCQQYYISPWTFGQGTKVEIKRTVAAPSVFIFPPSDEQLKSGTASVVCLLNNFYPREAKVQWKVDNALQSGNSQESVTEQDSKDSTYSLSSTLTLSKADYEKHKVYACEVTHQGLSSPVTKSFNRGEC heavy 2: not shown light 2: DIQMTQSPSSLSASVGDRVTITCRASQDVGIYVNWFQQKPGKAPRRLIYRATNLADGVPSRFSGSRSGTDFTLTISSLQPEDFATYYCLEFDEHPLTFGGGTKVEIKRTVAAPSVFIFPPSDEQLKSGTASVVCLLNNFYPREAKVQWKVDNALQSGNSQESVTEQDSKDSTYSLSSTLTLSKADYEKHKVYACEVTHQGLSSPVTKSFNRGEC | – | binds | –
PRO051 (Notch2/RAGE ANDbody made by controlled Fab arm exchange of PRO034 K409R and PRO002 F405L) (bispecific antibody, copies: 1 + 1 + 1 + 1) heavy 1: not shown light 1: not shown heavy 2: not shown light 2: DIQMTQSPSSLSASVGDRVTITCRASQDVGIYVNWFQQKPGKAPRRLIYRATNLADGVPSRFSGSRSGTDFTLTISSLQPEDFATYYCLEFDEHPLTFGGGTKVEIKRTVAAPSVFIFPPSDEQLKSGTASVVCLLNNFYPREAKVQWKVDNALQSGNSQESVTEQDSKDSTYSLSSTLTLSKADYEKHKVYACEVTHQGLSSPVTKSFNRGEC | – | binds | –
